According to publication PMC9159934:

Biological target: BsaXI specificity subunit, WT: TRD1-CR1-TRD2-CR2 (Bacillus stearothermophilus 25B (Geobacillus sp. 25B))
Assay: co-purification by chromatography + SDS-PAGE band densitometry; RM and S expressed separately as intein-CBD fusions, combined and purified together over chitin, DEAE, heparin, Source 15S, Source 15Q and gel filtration (Superdex 75); RM:S ratio estimated from molecular mass and band intensity on SDS-PAGE (Bio Rad gel imaging software)

In the case of “BsaXI restriction-modification subunit (RM fusion) (enzyme)”, the stoichiometry N is reported as 2 RM per S.
